Measured values: publication doi:10.1101/498428

Assays:
Assay in all cases: native gel or EMSA
[1] = target: His-Halo-PRDM9^Cst ZnF1-11 (Mus musculus castaneus (CAST/EiJ strain))
[2] = target: His-MBP-eYFP-PRDM9^Cst ZnF (Mus musculus castaneus (CAST/EiJ strain))
[3] = target: His-MBP-eYFP-PRDM9^Dom2 ZnF (Mus musculus domesticus (C57BL/6J strain))
[4] = target: His-PRDM9^Cst ZnF1-11 (Mus musculus castaneus (CAST/EiJ strain))
[5] = target: His-PRDM9^Cst ZnF2-6 (Mus musculus castaneus (CAST/EiJ strain))
[6] = target: His-PRDM9^Cst ZnF2-8 (Mus musculus castaneus (CAST/EiJ strain))
[7] = target: His-PRDM9^Cst ZnF (Mus musculus castaneus (CAST/EiJ strain))
[8] = target: His-eYFP-PRDM9^Cst (full-length PRDM9^Cst) (Mus musculus castaneus (CAST/EiJ strain))
[9] = target: His-eYFP-PRDM9^Cst ZnF1-11 (Mus musculus castaneus (CAST/EiJ strain))
[10] = target: His-eYFP-PRDM9^Cst ZnF2-11 (Mus musculus castaneus (CAST/EiJ strain))
[11] = target: His-eYFP-PRDM9^Cst ZnF (Mus musculus castaneus (CAST/EiJ strain))

## His-Halo-PRDM9^Cst ZnF1-11 (domain or fragment)
[1]
  stoichiometry N: 3

## His-MBP-eYFP-PRDM9^Cst ZnF (domain or fragment)
[2]
  stoichiometry N: 3

## His-MBP-eYFP-PRDM9^Dom2 ZnF (domain or fragment)
[3]
  stoichiometry N: 3

## His-PRDM9^Cst ZnF1-11 (domain or fragment)
[4]
  stoichiometry N: 3

## His-PRDM9^Cst ZnF2-6 (domain or fragment)
[5]
  stoichiometry N: 3

## His-PRDM9^Cst ZnF2-8 (domain or fragment)
[6]
  stoichiometry N: 3

## His-PRDM9^Cst ZnF (domain or fragment)
[7]
  stoichiometry N: 3

## His-eYFP-PRDM9^Cst (full-length PRDM9^Cst) (natural protein)
[8]
  stoichiometry N: 3

## His-eYFP-PRDM9^Cst ZnF1-11 (domain or fragment)
[9]
  stoichiometry N: 3

## His-eYFP-PRDM9^Cst ZnF2-11 (domain or fragment)
[10]
  stoichiometry N: 3

## His-eYFP-PRDM9^Cst ZnF (domain or fragment)
[11]
  stoichiometry N: 3
